Experimental data as given in patent publication US9359446B2, “Antibody to a carbonic anhydrase” (Hemholtz Zentrum Munchen—Deutches Forschungszentrum Fur …, priority 2010, dated 2016).

Assays:
[1] = system: peripheral blood mononuclear cells (PBMC), melanoma cell lines; test: Flow cytometry binding to peripheral blood mononuclear cells and melanoma cell lines; parameters: species or system human; conditions: hybridoma supernatant diluted 1:5
Experimental: FIG. 4A. Permanent human cancer cell lines were incubated with EXO 6A10 (hybridoma supernatant diluted 1:5 in 2% (v/v) FCS (i.e., fetal calf serum) in PBS) for 15 min on ice, washed three times in PBS/2% (v/v) FCS and then stained with a specific secondary antibody (goat-anti-rat IgG/Cy5) for another 15 min on ice. Binding of 6A10 was then measured by flow cytometry in a Becton Dickinson FACS Calibur device and FlowJo software (Treestar Inc.). An antibody of the identical isotype with an irrelevant specificity (glutathione-S-transferase) was used as control. (grey are=isotype control; black line=EXO 6A10). No binding to peripheral blood mononuclear cells (PBMC) and to two melanoma cell lines (not shown) was detectable. […] Exosomes were isolated from malignant ascites by differential centrifugation (500×g; 10.000×g; 70.000×g) and resuspended in PBS. The protein concentration was measured in a standard Bradford assay. 2 μg protein were pipetted onto a nitrocellulose membrane. Membranes were incubated with the different primary antibodies. After washing, membranes were incubated with a specific secondary antibodiy (anti-rat IgG/peroxidase). Ganglioside GM1 was detected with cholera toxine subunit B/peroxidase. Membranes were developed with the ECL system.

CA-XII [2] = molecular target: T1, CA-XII (Homo sapiens, UniProt O43570); test: Flow cytometry binding to murine L929 cells transfected with human CA-XII; parameters: expressed in transfected cells; host or cells: murine L929 cells
Experimental: (§1) Murine L929 cells were transfected with an expression plasmid encoding human CA-XII. […] As a control, binding of EXO 6A10 to non-transfected L929-cells was tested (FIG. 10, grey area, L929). […] the binding of membrane localized overexpressed human CA-XII.

[3] = system: non-transfected L929-cells; test: Flow cytometry binding to non-transfected L929 cells (control); parameters: species or system murine
Experimental: as §1

CA-XII [4] = molecular target: T1, CA-XII; test: CA-XII inhibition by EXO 6A10 and azetazolamide; type: biochemical; conditions: compared to sulfonamid azedazolamide
A549 lung cancer cells = test: Inhibition of metabolic activity and growth in 3-dimensional A549 tumour spheroids (MTT-assay, pictures); type: cell-based, human
Experimental: Metabolic acitivity of the spheroid was measured two days later by means of a MTT-assay and reading of the extinction at 595 nm (Cory et al. 1991). All data are represented as mean±standard error. Comparisons between non-treated and treated spheroids were performed using t-tests.
A549 lung cancer cells were plated onto a cushion consisting of 1% (v/v) agarose in PBS on a 96-well cell culture plate. […] Instead cells spontaneousely form 3-dimensional structures termed tumour spheroids.
FIG. 7, Upper: Some of the spheroids were cultivated in the presence of EXO 6A10 (final concentration 10 μg/ml) whereas others were cultivated with acetazolamide (AAZ, final concentration 100 μM). Control spheroids were cultivated without any additional treatment (Unbeh.). The metabolic acitivity of the spheroid was measured two days later by means of a MTT-assay as described and reading of the extinction at 595 nm (Cory et al. 1991). For each group, 10 spheroids were included, the mean value, the standard deviation were calculated. All data are represented as mean±standard error. Comparisons between non-treated and treated spheroids were performed using t-tests, calculated using Prism4 (GraphPad Software, La Jolla).
FIG. 7, Lower: A549 spheroids were cultivated for two days with EXO 6A10 or left untreated.

CA-II = CA-II (Homo sapiens, UniProt P00918); test: EXO 6A10 inhibition of CA II; type: biochemical

T1 sequence (O43570 25-354): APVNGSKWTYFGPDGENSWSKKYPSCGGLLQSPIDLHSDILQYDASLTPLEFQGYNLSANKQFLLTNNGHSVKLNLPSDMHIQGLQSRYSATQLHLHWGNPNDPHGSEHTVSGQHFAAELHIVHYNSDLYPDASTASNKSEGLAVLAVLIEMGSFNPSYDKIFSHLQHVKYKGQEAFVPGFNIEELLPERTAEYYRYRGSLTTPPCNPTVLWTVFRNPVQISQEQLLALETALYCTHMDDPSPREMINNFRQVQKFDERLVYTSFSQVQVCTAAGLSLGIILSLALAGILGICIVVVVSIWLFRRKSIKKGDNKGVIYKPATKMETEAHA

B1: EXO 6A10: rat monoclonal antibody raised to human CA-XII; CDRs SEQ ID NOs 1 to 6, VH SEQ ID NO. 7, VL SEQ ID NO. 8 (protein)
light: MARVFQQDDIVMTQTPATLSVTPGESVSLSCRASQGISTSIHWYQQKSNESPRLLIKFASQSISGIPSRFSGSGSGTDFTLSINRVESEDFSVYFCQQTYSLPYTFGAGTKLELKRADGCTNCIHLSRRSPTIFSAAMENRCSSFILSRFSGCILKLILRTMLTTSSGTVVGG
VH: EVKLEESGPGLVQPSETLSLTCTVSGFSLTTYSVSWVRQPSGKGPEWMGRMWYDGDTVYNSALKSRLSISRDTSKNQVFLKMNSLETDETGTYYCTRDFGYFDGSSPFDYWGQGVMVTVSSAETTAPSVYPLAPGTALKSNSMVTLGCLVKILLKNSSHPEDLAAALPIVSRITPDGYGVQAQVLKQLILFTMRKKQ
[1]
  binding to PBMC and two melanoma cell lines: No binding
CA-XII [2]
  binding to L929 cells transfected with human CA-XII: binds to transfected
[3]
  binding to non-transfected L929 cells: not to non-transfected cells
CA-XII [4]
  inhibition of CA-XII enzyme activity relative to azedazolamide: 40 times
A549 lung cancer cells; A549 spheroids, 10 μg/ml, two days
  metabolic activity of spheroids (MTT-assay, extinction at 595 nm): inhibition of metabolic activity
A549 lung cancer cells; cultivated for two days, versus untreated spheroids
  size and density of A549 spheroids: much smaller and much more dense
A549 lung cancer cells; hypotoxic culture conditions
  growth of tumour cell line A549: inhibits the growth
CA-II
  inhibition of CA-II: does not significantly inhibit
